Results published in US7041801 (VANDERBILT UNIVERSITY, dated 2006).

Target: T1, integrin αVβ3 expressed by human umbilical vein endothelial cells (HUVEC) (human, UniProt P06756 31-1048; P05106 27-788)
T1 construct: whole, on cells; also called integrin alpha V beta 3
Assay: binding to HUVEC; the receptor on HUVEC was identified as αVβ3
Description: Human umbilical vein endothelial cells (HUVEC) (Clonetics Inc., San Diego, Calif.) were grown as indicated by the supplier in endothelial growth media supplemented with 10 ng/ml human recombinant epidermal growth factor, 1 μg/ml hydrocortisone, 50 μg/ml gentamicin, 12 μg/ml bovine brain extract and 2% FBS. Cells were grown at: 37° C./5% CO_2 to 70% confluency before use in the binding assay. […] The plates were washed with PBS and blocked for 30 min with a solution of heat treated (95° C. for 5 min) PBS containing 3% BSA. HUVEC cells were harvested by trypsinization and resuspended in an adhesion buffer (Hanks balanced salt solution pH 7.4 containing 10 mM Hepes, 2.2 mM MgCl_2, 0.2 mM MnCl_2 and 1% BSA). Cells (10^4/100 μl) were added to each well in the presence or absence of the indicated antagonists or controls at varying concentrations. […] Cells were incubated at 37° C./5% CO_2 for 60–90 min and wells were washed until no cells remained in the BSA control. To count remaining cells, 100 μl of endothelial media was added to each well. Cells number was determined by the Promega Cell titer AQ as indicated by the manufacturer.

T1 sequence (P06756 31-1048, chain 1 of 2): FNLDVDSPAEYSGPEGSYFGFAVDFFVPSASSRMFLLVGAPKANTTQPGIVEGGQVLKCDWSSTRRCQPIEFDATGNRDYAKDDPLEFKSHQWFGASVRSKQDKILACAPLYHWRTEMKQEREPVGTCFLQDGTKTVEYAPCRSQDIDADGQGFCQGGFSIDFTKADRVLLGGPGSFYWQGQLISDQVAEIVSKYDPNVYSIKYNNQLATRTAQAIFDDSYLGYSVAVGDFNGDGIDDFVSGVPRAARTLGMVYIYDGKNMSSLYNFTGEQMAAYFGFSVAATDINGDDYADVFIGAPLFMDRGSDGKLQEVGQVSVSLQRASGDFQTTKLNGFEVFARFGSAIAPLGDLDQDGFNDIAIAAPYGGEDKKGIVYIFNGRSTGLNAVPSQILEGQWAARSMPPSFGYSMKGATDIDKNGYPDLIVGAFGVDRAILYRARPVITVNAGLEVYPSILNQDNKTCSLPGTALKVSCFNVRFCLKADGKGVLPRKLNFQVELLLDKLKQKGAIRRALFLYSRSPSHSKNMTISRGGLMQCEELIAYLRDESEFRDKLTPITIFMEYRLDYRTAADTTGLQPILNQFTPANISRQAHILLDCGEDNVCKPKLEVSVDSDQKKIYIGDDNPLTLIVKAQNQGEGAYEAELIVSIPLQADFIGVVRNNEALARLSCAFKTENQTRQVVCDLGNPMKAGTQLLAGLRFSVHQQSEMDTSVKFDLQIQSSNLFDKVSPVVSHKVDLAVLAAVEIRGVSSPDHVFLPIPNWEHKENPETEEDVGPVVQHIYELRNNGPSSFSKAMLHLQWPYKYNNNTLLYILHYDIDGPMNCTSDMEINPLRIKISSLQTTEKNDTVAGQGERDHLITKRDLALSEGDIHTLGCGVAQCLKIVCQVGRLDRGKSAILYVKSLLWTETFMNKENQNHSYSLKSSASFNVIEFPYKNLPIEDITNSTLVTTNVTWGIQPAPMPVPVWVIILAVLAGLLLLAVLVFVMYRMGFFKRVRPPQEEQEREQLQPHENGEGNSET
T1 sequence (P05106 27-788, chain 2 of 2): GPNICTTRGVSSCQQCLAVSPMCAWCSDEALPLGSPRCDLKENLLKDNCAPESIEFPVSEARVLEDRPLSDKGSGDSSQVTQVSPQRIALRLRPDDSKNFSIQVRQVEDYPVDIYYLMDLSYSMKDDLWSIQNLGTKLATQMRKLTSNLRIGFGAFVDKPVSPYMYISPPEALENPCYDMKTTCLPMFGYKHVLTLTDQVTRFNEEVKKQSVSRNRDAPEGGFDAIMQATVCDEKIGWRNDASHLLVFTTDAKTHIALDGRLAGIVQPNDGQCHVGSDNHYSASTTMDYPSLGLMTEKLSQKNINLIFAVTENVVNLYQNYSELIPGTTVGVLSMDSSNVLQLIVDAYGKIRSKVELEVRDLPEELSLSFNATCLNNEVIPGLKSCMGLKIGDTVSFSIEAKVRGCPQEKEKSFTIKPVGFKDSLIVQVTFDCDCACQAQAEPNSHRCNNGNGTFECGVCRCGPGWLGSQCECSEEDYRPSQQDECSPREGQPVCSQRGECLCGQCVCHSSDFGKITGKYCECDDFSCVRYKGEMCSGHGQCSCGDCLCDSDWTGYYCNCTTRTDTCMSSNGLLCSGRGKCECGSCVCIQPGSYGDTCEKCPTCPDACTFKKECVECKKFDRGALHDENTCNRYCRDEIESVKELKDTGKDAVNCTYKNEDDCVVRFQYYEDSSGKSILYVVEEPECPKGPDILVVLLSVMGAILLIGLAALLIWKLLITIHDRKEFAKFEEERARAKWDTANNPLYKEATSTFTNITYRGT

B1: murine Del-1 (major form) expressed by del-1 transfected yolk sac YS-B cells (ligand)
chain: DICNPNPCENGGICLSGLADDSFSCECPEGFAGPNCSSVVEVASDEEKPTSAGPCIPNPCHNGGTCEISEAYRGDTFIGYVCKCPRGFNGIHCQHNINECEAEPCRNGGICTDLVANYSCECPGEFMGRNCQYKCSGHLGIEGGIISNQQITASSNHRALFGLQKWYPYYARLNKKGLINAWTAAENDRWPWIQINLQRKMRVTGVITQGAKRIGSPEYIKSYKIAYSNDGKTWAMYKVKGTNEEMVFRGNVDNNTPYANSFTPPIKAQYVRLYPQICRRHCTLRMELLGCELSGCSEPLGMKSGHIQDYQITASSVFRTLNMDMFTWEPRKARLDKQGKVNAWTSGHNDQSQWLQVDLLVPTKVTGIITQGAKDFGHVQFVGSYKLAYSNDGEHWMVHQDEKQRKDKVFQGNFDNDTHRKNVIDPPIYARFIRILPWSWYGRITLRSELLGCAEEE
notes: The protein is found in cell lysates, on the cell membrane and in the extracellular matrix of the transfectants (52 kDa band); also called del-1 transfectants; full-length Del-1 protein
  binding result: binds
